The nature of this data set: soluble on expression in E. coli; label from the status in PepcDB or PDB records.
Take “MKYIVLLGDGMSDEPMQELGGKTPLQAARTPHMDAMARRGRIGLARTVPEGYPPGSDVANLSVFGYDPRACYTGRSPLEAASMGVELGSADVAFRVNLVNLAPTRGTLVMNDYSAGHISTAEGRELIEAIQGVMGTDEFQFYPGVGYRHLMVWRNGKCGMTVVPPHDISGQSILEHLPKGEGAERLIELMNSSQLVLNNHPQYRRRLEEGKVPANSIWLWGHGKAPRMASFHEKFGLTGAVISAVDLVRGIGVCAGLDVIKVEGATGYIDTNYEGKVTAALEALEAHDYVYLHVEAPDEAGHGGNLEHKLKAIEDFDARVVGPIMAGMEKFGSYRILCTPDHPTPLRLKTHTDAPVPFVLFSGETSENAGVAGYDEESARSAGLVVEDGFRLMEMMLDRLEHHHHHH”: the “soluble on expression in E. coli” value was “soluble”. The entry for “MKYPQVWDLDTFFKGGSQSSDFQHFVKETEELVDKLVASTSAKMTLAQLVNELVNVQKVMQRLRHGAAFVSCLKAQNVKDEHAFQWQGKLNELQAKLQNIWVELEATFGRMEDGEWQELLNHPQLSDITFSLNERRQAAAEKLAPEQEKLVAQLAVDGYHAWGEVYNQAVGRMEIPFEEDGETKRLSP” is “not soluble”; for “MKYTKGTYSSSAKGHSSNVNLTVNFDSDKIKNVSINVEGETSQRNKDVVSQLSAQILKKQDDSLDAVTGATETSNAVRRALTDCIKQATGDTENQTKTPLKDGTYTETVPSYSLIAPMTGEVTIKNNKIKNIKITSEKDSQTSPWFHVAEKKFIPRLIESQSLDTDAVTGASVSSGAIKSIAEKAIKDAGGNNDEWHTPVTKKNDTVEKKDFDVIVVGLGGSGILSYCAAAKSGAKVFGLDIAAGIGGNSISTSGPMVVNSKIQSKKYNDGKDNIDPEDLYNTWIDYVKTDKKAAVIKKAIYEDGPALDYYMKNFGFSFDSPAFGMPAGYFPSFVRQDWTKEWAVYTAKDNKWYSAGQPVHIDQYQNALDKAKGMNPVNDYQLELAAKDFIKDDSGKVIGVKAVSYDGTTYNIYGRAVILASGGFVGNNQMMKDVYGHTCHTFGSTTAKGQGIKMGQSIGGNTYALRTLPMIHISQVPNIIRDDSLTPDQKATLSALAITSDAKQIDETGNILGSKDESGIEESKLTVGIAYAPGFHYFNAYTKEDLDKMKNEGVSETTSKVVVIILDQGGKVPAAHTPIKDIDKIVDEAIKHGDAWKGTPSELAKQLNMDEAKLTKSLGDPNKEYYLFEAAGYAYATCGGLDVDEDMNVLRQDGSKIENVFAVGQDSEGVENRNDEAYTPWGGQAQAWTFVSGKIAGENAAKILEHHHHHH” it is “soluble”; for “MLADKESLIEALKLALSTEYNVKRNFTQSVEIILTFKGIDMKKGDLKLREIVPLPKQPSKAKRVLVVPSSEQLEYAKKASPKVVITREELQKLQGQKRPVKKLARQNEWFLINQESMALAGRILGPALGPRGKFPTPLPNTADISEYINRFKRSVLVKTKDQPQVQVFIGTEDMKPEDLAENAIAVLNAIENKAKVETNLRNIYVKTTMGKAVKVKR” it is “soluble”. With “MLAEIKGLNEECGVFGIWGHENAAQVSYYGLHSLQHRGQEGAGIVVNNGEKIVGHKGLGLISEVFSRGELEGLNGKSAIGHVRYATAGGSEVANVQPLLFRFSDHSMALAHNGNLINAKMLRRELEAEGSIFQTSSDTEVLLHLIKRSTKDSLIESVKEALNKVKGAFAYLLLTGNEMIVALDPNGFRPLSIGKMGDAYVVASETCAFDVVGATYIRDVEPGELLIINDEGIHVDRFTNEVDHAICSMEYIYFARPDSNIAGINVHAARKNMGKRLAAEAPIEADVVTGVPDSSISAAIGYAEATGIPYELGLIKNRYVGRTFIQPSQELREQGVKMKLSAVRGVVEGKRVVMIDDSIVRGTTSKRIVRMLREAGATEVHVRIASPPLKYPCFYGIDIQTRKELIAANHTVEEIREMIGADSLTFLSEDGLVDAIGRPYEGKYGGLCMAYFNGDYPTALYDYEQELLESMK”, the “soluble on expression in E. coli” value is recorded as “not soluble”. To “MLAGLGEGGRVYIADLAIGPVALRDDGSIEEYELFPRSVDEAVTEALRLEEEGFTLAHEKLGKKLVESGVGSLVVESEDTARHFSKLGLSVKVEPGNNVALSARERLVSLGVELGFFGSEDDALSWLYEVEVEYTRRKLRGAAQKRDMLAAQAIRAIDDIDKTVNLFVARLREWYSIHFPELNDLVREHEDYVKIVSAVGHRDNITVERLVDLGFSEEKARRIAEAAKQSIGADLSEIDIQAVQTLARITSELYQLRRRLTEYIEQVMNEVAPNITALVGPLLGARLISLAGGLDKLARMPASTIQVLGAEKALFRALRTGGKPPKHGIIFQYPDIHRSPKWQRGKIARALAAKLAIAAKVDAFTGRFIGDKLREELRRRIAEIKKIYAKPPKRKREEKPPQPRRARPPRRGRPPRRRRGGRRLEHHHHHH” belongs “soluble”; to “MLASAILPVVSFAESDPLDVLLKKLEEKGVITKEEAKEVKKVAKKHPHLKVKIRLQPRIDFGDIYKENNDYKSRSDFYFRRVRLEISKEWKNIPFGKKLKINFTLHSDKGERDYDYKKGEKEHHSFDPKVKYAYADWTFVDEFAVRIGKNKIPYSRVSLTSSSRQLLIERPYVTEDAKKWLGDYDSNQIMFHGKVAGGIFRYMLSIWDGSTIESKNKTGGTVKADTSLGDAYAIRLEFSPPGFVEKKKDDTGIGEKNKGDVISVGLNYAKNSDFDITDKNIKNEEATVWGGDIFGRFHLGPGALVAQAEYVKMKYDKLDLEEKGYYIQAGYLIPTPYGKFEPAARYEHFKQEDKKNDVTKHKKDIITLGFNHYIKGHKIKWGYNVLFIDNKEKDEKDQTVHQIQMQFYF”, “not soluble”; to “MLAVSGLARSTFFDHQRRLDKPDKYADLKEQITTIFHDSNATFGYRRIWRALRNNNTIVNKKVVQRLMREQGLVSKIRRKKYNSYRGTVSHIADNVLGRRFIQDAPNKVWVSDVTEFRVAGTKVYLSPVMDLFDRTILAHTLSTSPNTQLTSRSLADAIAMFSPGKGLIVHTDQGFQYQHASWRTLIKSVGGVQSMSRKGNCYDNAVMENFFGHLKSEMYYGASFTSVDELCQAIDEYILWYNTYRLQERFKGLAPMQYRNQTLAKTLTV”, “not soluble”. To “MLCDSLPTASRTAAAILNLAQREDVTAEALAQLIQTDPALTGRILRFANAPAQGTRRPVASVIDAIDLVGLPAVRQFALSLSLIDAHREGRCEAFDYAAYWQKSLARAVALQSITAQASTVAPKEAFTLGLLADVGRLALATAWPEEYSECLRKADGEALIALERERFATDHDELTRMLLTDWGFPQVFIDALQLSQQDEIRDEGRTGRFARQLALAQHIADHRLAEEPRRAALSPLLRAEARRCGLGDEDLARLLADPPADWLDWTRTIGLPGDAPTGGAEPSRPPPQTDEKLHVLLADDDPIMLARLSRQLEADGHHVASRRDGETALAYALEHQPEMVITDWHMKPMNGLELCRALRESALGGNVYIVMLTASESEDALVEAFGAGIDDYVIKPPSVRVLKARIRAGQRIITLHKKLARERKEIERYSSELAAANRRLELMAHTDQLTGLPNRRYAMDRLEREWAQARTFDRPLSIMMLDLDWFKSINDSLGHDAGDQALVHAARVMRETVRTSDVVCRMGGEEFLIIIPDTAGPAAIQTAERVRSAVEQQQPAKLKLSRPLTASIGVADSTSAPSLKDLLLKADNALYQVKQNGRNGVRYAGLAAALEHHHHHH” belongs “soluble”; to “MLDDTGERIIPKNMKPMNGMLLEHLARYYFSTPYASGRVLDIACGTGYGSVMVAKTRKTEVDQVLGVDFDADVIHYAKQNYYHPKVSFLVGDAMDPYLRNQIGTFDTILSFETIEHVKDDRLFIERMRQLLKKDGTLVLSTPFGQGRGKPSDEPFHYHQLTEEEFRSLFDSFSEKEVFYQRGVTIEPKRTNVHYAFGVAVCKKLEHHHHHH”, “soluble”; to “MLEEIPSSVEADLMPNLDSNVSSDNGTSKRFRIQANAVEARSFFASLVKGTEYSVAIHPAVQGNITVNLSDVTLDEVLSVVQNMYGYDVMKSGKVIQVYPAGMRTVTIPVDYLQFKRSGRSLTSIVTGSVTSAGTSNSGGSSDSSDSSDSNNSNNGNDSSTTSTGGTRIETITESDFWPMLQQAVANLIGSGKGQSVVVTPQAGVITVRAFPDDIREVREFLGVSQERMQRQVILEAKILEVTLSDGYQQGINWSNLSASIGNSGSIIVNRPASALPPLDAIGTLLGGQTNVTISDGNFEAVLNFMSTQGDLNVLSSPRITAANNQKSVIKVGTDQYFVTELSSNAGNGENSNAVPEVELTPFFSGISLDVTPQIDNKGNVFLHVHPAVIEVTEEVKQLNLGGDFQNIQLPLAKSSIRESDSVIRAKDGDVVVIGGLMKQQNVEQVSKVPFLGDVPALGHLFRNTSNVTQKTELVILLKPTVVGVNSWQKELERSRDLLQEWFPDAQLEHHHHHH”, “soluble”. To “MLEIKGLRARIVGTNTEVIRGLNLTVADGEVAAIMGQNGAGKSTLSYLLAGRDDYEVIDGDILYNGQSLLEMDPAERAAYGVFLAFQYPMEIPGVATMEFLKVAMNSQRKARGDQELKIPEFIKCVKEISSKLEINMDMLKRPLNVGFSGGEKKRAEILQMALLEPKLCILDETDSGLDIDALKIVADGVNKLRDPKRSFLVITHYQRLLNYIIPDTVHVLYKGRIIKSGDKSLALYLEQNGYADLIREAA” belongs “not soluble”.

For the sequence “MLEKGGIRVIDEKTLEIIVREVLTNLTSDKGTQNQQKTASSSLPKLDPKRDYPLAKNKPELAKSITGKTINEITLQAVREGKVLPDDLKISPETLLAQAEIAEAAGRKQLANNFRRAAELTKVPDKRILEIYNALRPYRSTKEELLAIADELDNAYGAKVCAAFVREAAEVYERRGRLKGME”, the “soluble on expression in E. coli” value was “not soluble”. To “MLELFLKEEWTTEAKEILRPFGQKKLIGIQMGASNRSRQWFVERWIELAKRIIERDEEVVIVFVGSKNELEEISLVAQALPQDRVFISAGRLSLGAAAALIGELGLLFTPDTGPLHIAVALRVKTISLFAVANPKNSLPDYDQSLHRYIKVDRCCEPCVGKRCAYQKCMEAIGVDEVYEEYKKLQELEHHHHHH” belongs “soluble”. The entry for “MLELSESNIHLNANAIDKQQAIEMAVSALVQAGNVENGYLQGMLARELQTSTFLGNGIAIPHGTLDTRLMVKKTGVQVFQFPQGIEWGEGNIAYVVIGIAARSDEHLSLLRQLTHVLSDEDTAAKLAKITDVAEFCAILMGETIDPFEIPAANISLDVNTQSLLTLVAINAGQLQVQSAVENRFISEVINNAALPLGKGLWVTDSVVGNVKNALAFSRAKTIFSHNGKAVKGVITVSAVGDQINPTLVRLLDDDVQTTLLNGNSTEILTALLGSSSDVETQSVEGAVVGTFTIRNEHGLHARPSANLVNEVKKFTSKITMQNLTRESEVVSAKSLMKIVALGVTQGHRLRFVAEGEDAKQAIESLGKAIANGLGENVSAVPPSEPDTIEIMGDQIHTPAVTEDDNLPANAIEAVFVIKNEQGLHARPSAILVNEVKKYNASVAVQNLDRNSQLVSAKSLMKIVALGVVKGTRLRFVATGEEAQQAIDGIGAVIESGLGE” is “not soluble”; for “MLETETGRYSDTLRSALVSLDGDNAWALSESWCGTIQWICPSPYRPHHGRKNWFLGIGRFTADEQEQSDAIRYETLRSSGPGGQHVNKTDSAVRATHLASGISVKVQSERSQHANKRLARLLIAWKLEQQQQENSAALKSQRRMFHHQIERGNPRRTFTGMAFIEGLEHHHHHH” it is “not soluble”; for “MLFDTHAHLNAEQYDTDLEEVIERAKAEKVERIVVVGFDRPTITRAMEMIEEYDFIYAAIGWHPVDAIDMTEEDLAWIKELSAHEKVVAIGEMGLDYHWDKSPKDIQKEVFRNQIALAKEVNLPIIIHNRDATEDVVTILKEEGAEAVGGIMHCFTGSAEVARECMKMNFYLSFGGPVTFKNAKKPKEVVKEIPNDRLLIETDCPFLTPHPFRGKRNEPSYVKYVAEQIAELKEMTFEEIASITTENAKRLFRINLEHHHHHH” it is “not soluble”. On to “MLFKRYGDPISLLRTYRLCDLMEFIFYVQEVEQEEKIYNQWLHTQMTQSLKEFKDQQKYRPLRKNKAKSTTKEEQQKALDFASQFVKPRKEGEVS”, for which the “soluble on expression in E. coli” value was “not soluble”.

Values taken from the DeepSol protein solubility set.
